# According to the RNAGym collection of RNA variant scans (doi:10.7554/elife.80360):
# B1: Hairpin Ribozyme (parent)
# chain: GUCCUCUUUCACGUGCGCGUGAAAGAGAGAAGUGAACCAGAGAAACACACGUUGUGGUAUAUUACCUGGUA
# Variants of: B1
# Assay: self-cleavage, relative activity (ratio to wild type); higher = more cleavage; co-transcriptional
row,Variant,self-cleavage
1,U7C U58C,0.775
2,U7G U52G,0.779
3,U8G C65G,0.275
4,U7C G68U,0.171
5,U7C G68A,0.339
6,U7G U62A,0.101
7,U7G U62C,0.0811
8,U8A A61U,0.191
9,U9A G13U,0.479
10,U8C C18A,0.787
11,U8C C18U,0.779
12,U8A A71C,1.23
13,U7G A71G,1.06
14,U7G A71C,1.35
15,U9A A23G,0.559
16,U7G A31G,0.503
17,U7G A31U,0.216
18,U8C C12U,0.566
19,U8C C12A,0.164
20,U8G A71U,0.588
21,U8G A71G,0.993
22,U8A G54U,0.524
23,U7G A26C,0.0432
24,U8G C10A,0.725

row,Variant,self-cleavage
1,U8G C10U,0.654
2,U8A U33C,0.137
3,U8G U20C,0.425
4,U8C A23G,0.709
5,U7C A41G,0.845
6,U7G G69C,0.191
7,U7G G69A,0.398
8,U7G G69U,0.166
9,U7G G19A,0.618
10,U8C G34C,1.16
11,U8C G19U,0.582
12,U8C A45C,0.065
13,U8C A45U,0.257
14,U8C G40C,0.0998
15,U8C U53G,0.509
16,U8C U53A,0.674
17,U8C G54A,0.378
18,U8C G54U,0.453
19,U8G U53C,0.954
20,U8G U53A,0.567
21,U7G G13A,0.704
22,U7G A61G,0.0998
23,U7G A64C,0.24
24,U7G A64U,0.143

row,Variant,self-cleavage
1,U8C G13C,0.834
2,U7G C16U,0.932
3,U7G C16G,0.689
4,U8G A36G,0.76
5,U8A C12G,0.552
6,U7C G25A,0.306
7,U7C G25U,0.494
8,U9A A28U,0.441
9,U8G G51C,0.665
10,U7G U63C,0.143
11,U8A A23G,0.808
12,U8A A23C,0.712
13,U8A G15U,0.888
14,U8C A35C,0.876
15,U8C A35U,0.679
16,U7C G21C,0.962
17,U7G A45G,0.102
18,U7G A45C,0.0973
19,U7G G40C,0.207
20,U7G G40A,0.308
21,U7C A64U,0.0591
22,U8A C10U,0.643
23,U8A C10G,0.44
24,U7C G51U,1.1

row,Variant,self-cleavage
1,U7C G51C,0.489
2,U8C U70C,0.651
3,U8C U70A,0.631
4,U9A A43U,0.105
5,U8G A23U,0.738
6,U7G C18U,1.07
7,U7G C18G,0.739
8,U7G A36C,0.669
9,U7C C16U,1
10,U8G U70A,0.715
11,U8A C48A,0.111
12,U8A C48G,0.107
13,U8A C48U,0.117
14,U9A A64U,0.131
15,U7G C48G,0.153
16,U8G U63A,0.245
17,U8A A43G,0.13
18,U7C U20G,0.751
19,U8C A28C,0.691
20,U8C A28U,0.693
21,U8G U52C,0.617
22,U7G U70C,0.838
23,U7G U70G,0.917
24,U7C U62A,0.288

row,Variant,self-cleavage
1,U8G G25U,0.2
2,U8C G68A,0.186
3,U8C G68U,0.154
4,U8A U14A,0.642
5,U8A U14G,0.401
6,U8G A39C,0.406
7,U8G A39U,0.288
8,U8G U60G,0.51
9,U8A A31U,0.135
10,U8A A31G,0.448
11,U8A U70G,0.585
12,U8A U70C,0.816
13,U8C C65U,0.166
14,U7G A44G,0.16
15,U7G A28U,0.498
16,U7G C46A,0.0994
17,U8G G13A,0.618
18,U8G G13C,0.519
19,U7C G17C,0.527
20,U8C C10A,0.363
21,U9A A61C,0.144
22,U8A G29A,0.183
23,U8A A22U,0.891
24,U7G G25C,0.253

row,Variant,self-cleavage
1,U7G G25U,0.17
2,U7G U60C,1.12
3,U7C C50G,0.229
4,U7C C50A,0.209
5,U8A G21A,0.618
6,U8G G68C,0.183
7,U8G A35U,0.673
8,U9A A24G,0.461
9,U7G C66A,0.205
10,U8G C37A,0.218
11,U7C C12A,0.516
12,U8G G19U,0.332
13,U8G G19A,0.533
14,U8C C37A,0.214
15,U8G U9C,0.595
16,U8G U9G,0.82
17,U7C A49U,0.135
18,U7G A59C,0.0534
19,U8A G27U,0.208
20,U9A A11G,0.473
21,U9A A11U,0.541
22,U9A A11C,0.478
23,U8A A11U,0.619
24,U8A A11G,0.772

row,Variant,self-cleavage
1,U9A C66G,0.0453
2,U8A G17U,0.79
3,U8C A49C,0.216
4,U8C U63C,0.132
5,U7C A43G,0.0623
6,U8G U67G,0.242
7,U8G U67A,0.145
8,U8G U67C,0.189
9,U9A A39G,0.201
10,U8A A47G,0.187
11,U8A A44G,0.173
12,U8A A44C,0.213
13,U7G G34U,1.22
14,U8G C12G,0.146
15,U8A U52A,0.658
16,U8A U52G,0.518
17,U8C U67A,0.161
18,U7C G56U,0.188
19,U7C G13C,0.518
20,U7C C18U,1.06
21,U7C C18G,0.732
22,U7C C18A,0.973
23,U8C U62G,0.144
